Experimental data from PMC6506533, “Initial state of DNA-Dye complex sets the stage for protein induced fluorescence modulation”.

Molecular target: FEN1 (human, UniProt P39748 1-380)
Test: fluorescence anisotropy; rotational correlation time decreases on binding; RPA reaction buffer with 50 mM KCl or FEN1 reaction buffer (full composition not in material); steady-state measurements at room temperature; proteins in excess over Kd (Kd stated only as low nM)
Conditions: protein: recombinant; tags: none left (His6-SUMO cleaved); label: 5' flap tip pCy3; nicked double flap: 3 strands, 5' flap 4 nt, 3' flap 1 nt

Chain of FEN1 (P39748 whole entry): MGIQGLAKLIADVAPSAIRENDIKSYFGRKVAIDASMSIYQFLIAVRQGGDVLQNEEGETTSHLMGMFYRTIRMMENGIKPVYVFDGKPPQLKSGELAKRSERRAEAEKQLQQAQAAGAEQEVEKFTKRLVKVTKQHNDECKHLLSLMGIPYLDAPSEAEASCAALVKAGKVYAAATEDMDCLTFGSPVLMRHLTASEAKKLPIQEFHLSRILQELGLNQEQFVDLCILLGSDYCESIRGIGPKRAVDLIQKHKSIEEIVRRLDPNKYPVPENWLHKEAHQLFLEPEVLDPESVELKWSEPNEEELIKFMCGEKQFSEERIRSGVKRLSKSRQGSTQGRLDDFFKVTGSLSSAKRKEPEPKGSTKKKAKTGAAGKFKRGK

B1: DF-4,1 pCy3 (structured_DNA)
DNA 1: GATGACGAGCAGTCCTAACTGGAAATCTAGCTCTGTGGAG
DNA 2: CTCCACAGAGCTAGATTTCCC
DNA 3: TTTAAGTTAGGACTGCTCGTCATC
- binding result: binds
